Source: US20190367957A1
Read-outs that look alike come from different tables or passages of the source. Blank lines part the entries; values can stand above or below the binder they belong to.

Tests used:
[1] = molecular target: T1, cytochrome P-450aluC09 (P450 AluC09) from Amycolatopsis lurida NRRL 2430 (Amycolatopsis lurida NRRL 2430); assay: cell-based or functional assay
T1 sequence: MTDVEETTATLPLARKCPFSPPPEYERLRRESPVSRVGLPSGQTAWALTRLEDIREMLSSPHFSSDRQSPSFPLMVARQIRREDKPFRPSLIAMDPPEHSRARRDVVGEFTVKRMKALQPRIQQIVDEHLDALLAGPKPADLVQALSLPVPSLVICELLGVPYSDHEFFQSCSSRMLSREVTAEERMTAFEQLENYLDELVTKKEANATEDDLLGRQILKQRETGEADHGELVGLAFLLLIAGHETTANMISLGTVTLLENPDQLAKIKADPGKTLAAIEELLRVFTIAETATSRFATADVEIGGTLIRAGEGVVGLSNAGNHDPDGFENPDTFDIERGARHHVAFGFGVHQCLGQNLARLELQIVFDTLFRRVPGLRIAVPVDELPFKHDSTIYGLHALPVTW

[2] = molecular target: T1, cytochrome P-450aluC09 (P450 AluC09) from Amycolatopsis lurida NRRL 2430 (Amycolatopsis lurida NRRL 2430); assay: cell-based or functional assay; remark: listed apart in the source

- % yield of parent-derived products, HO-bosentan 568 m/z (whole cell biocatalysis) [1]: 21.2%
B1: ferredoxin CamB from Pseudomonas putida ATCC 17453 (protein)
chain: SKVVYVSHDGTRRELDVADGVSLMQAAVSNGIYDIVGDCGGSASCATCHVYVNEAFTDKVPAANEREIGMLECVTAELKPNSRLCCQIIMTPELDGIVVDVPDRQW

- % yield of parent-derived products, 4'-HO-diclofenac 310 m/z (whole cell biocatalysis) [2]: 11.5%
- % yield of parent-derived products, 5-HO-diclofenac 310 m/z (whole cell biocatalysis) [2]: 4.2%
- % yield of parent-derived products, HO-bosentan 568 m/z (whole cell biocatalysis) [2]: 6.3%
B2: ferredoxin Fd1 from Streptomyces griseus 11796 (protein)
chain: TMRVSADRTVCVGAGLCALTAPGVFDQDDDGIVTVLTAEPAADDDRRTAREAGHLCPSGAVRVVEDTE

- % yield of parent-derived products, HO-bosentan 568 m/z (whole cell biocatalysis) [1]: 27.4%
- % yield of parent-derived products, 4'-HO-diclofenac 310 m/z (whole cell biocatalysis) [2]: 60.3%
- % yield of parent-derived products, 5-HO-diclofenac 310 m/z (whole cell biocatalysis) [2]: 23.8%
- % yield of parent-derived products, HO-bosentan 568 m/z (whole cell biocatalysis) [2]: 52.6%
B3: ferredoxin AluF03 from Amycolatopsis lurida NRRL 2430 (protein)
chain: MKIIADTGKCVGAGQCVLTDPDLFDQSEDDGTVLVLNAEPEGEEAEENARTAVHICPGQALSLA
